Results on 16 variants are retold here after the supplement of paper PMC12855868.

B1: library; numbered along this chain (parent)
chain: MAAAGGARLLRAASAVLGGPAGRWLHHAGSRAGSSGLLRNRGPGGSAEASRSLSVSARARSSSEDKITVHFINRDGETLTTKGKVGDSLLDVVVENNLDIDGFGACEGTLACSTCHLIFEDHIYEKLDAITDEENDMLDLAYGLTDRSRLGCQICLTKSMDNMTVRVPETVADARQSIDVGKTS

Variants of B1 are the subject of this data set. As to the kind of experiment: scaled log2 fold change in cell abundance, elesclomol vs control (0 = silent mean, 1 = nonsense mean) (scaled log2 ratio); higher = higher viability under elesclomol (loss of FDX1 cuproptosis function). The note with it: glucose 10 mM. As for the experimental part: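 Deep mutational scan of full-length human FDX1: a pooled saturation-mutagenesis ORF library (every residue 2-184 mutated to all 19 amino acids plus stop, and silent codons where available) was expressed by lentivirus in FDX1-knockout ABC1 (14 days) or HEK293T (11 days) cells grown with elesclomol (ES) or DMSO control. Variant abundance came from ORF sequencing. The log2 fold change (ES vs control, mean of duplicates) was centred on the silent-variant mean (0) and scaled to the nonsense-variant mean (1). Higher values mean greater viability under ES, i.e. loss of FDX1 function in cuproptosis.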

[1] abbreviates: with ABC1 FDX1 KO, elesclomol 5 nM, 14 days.
[2] abbreviates: with HEK293T FDX1 KO, elesclomol 40 nM, 11 days.
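Note: variant abundance is its share of total variant reads in each endpoint sample, from next-generation sequencing of the integrated ORF PCR-amplified out of genomic DNA.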

Regarding MAAAGGARLLRAASAVLGGPAGRWLHHAGSRAGSSGLLRNHGPGGSAEASRSLSVSARARSSSEDKITVHFINRDGETLTTKGKVGDSLLDVVVENNLDIDGFGACEGTLACSTCHLIFEDHIYEKLDAITDEENDMLDLAYGLTDRSRLGCQICLTKSMDNMTVRVPETVADARQSIDVGKTS [R41H], the “scaled log2 fold change” value by setting is: under setting [1], 0.145; under setting [2], -0.535.
The corresponding values for MAAAGGARLLRAASAVLGGPAGRWLHHAGSRAGSSGLLRNQGPGGSAEASRSLSVSARARSSSEDKITVHFINRDGETLTTKGKVGDSLLDVVVENNLDIDGFGACEGTLACSTCHLIFEDHIYEKLDAITDEENDMLDLAYGLTDRSRLGCQICLTKSMDNMTVRVPETVADARQSIDVGKTS [R41Q] are -0.31 and 0.698.
Take MAAAGGARLLRAASAVLGGPAGRWLHHAGSRAGSSGLLRNFGPGGSAEASRSLSVSARARSSSEDKITVHFINRDGETLTTKGKVGDSLLDVVVENNLDIDGFGACEGTLACSTCHLIFEDHIYEKLDAITDEENDMLDLAYGLTDRSRLGCQICLTKSMDNMTVRVPETVADARQSIDVGKTS [R41F]: the “scaled log2 fold change” value runs as follows: under setting [1], 0.347; under setting [2], -0.469.
The corresponding values for MAAAGGARLLRAASAVLGGPAGRWLHHAGSRAGSSGLLRNTGPGGSAEASRSLSVSARARSSSEDKITVHFINRDGETLTTKGKVGDSLLDVVVENNLDIDGFGACEGTLACSTCHLIFEDHIYEKLDAITDEENDMLDLAYGLTDRSRLGCQICLTKSMDNMTVRVPETVADARQSIDVGKTS [R41T] are 0.311 and 0.274.
The corresponding values for MAAAGGARLLRAASAVLGGPAGRWLHHAGSRAGSSGLLRNKGPGGSAEASRSLSVSARARSSSEDKITVHFINRDGETLTTKGKVGDSLLDVVVENNLDIDGFGACEGTLACSTCHLIFEDHIYEKLDAITDEENDMLDLAYGLTDRSRLGCQICLTKSMDNMTVRVPETVADARQSIDVGKTS [R41K] are 0.264 and -0.114.
The corresponding values for MAAAGGARLLRAASAVLGGPAGRWLHHAGSRAGSSGLLRNGGPGGSAEASRSLSVSARARSSSEDKITVHFINRDGETLTTKGKVGDSLLDVVVENNLDIDGFGACEGTLACSTCHLIFEDHIYEKLDAITDEENDMLDLAYGLTDRSRLGCQICLTKSMDNMTVRVPETVADARQSIDVGKTS [R41G] are -0.751 and 0.252.
For MAAAGGARLLRAASAVLGGPAGRWLHHAGSRAGSSGLLRNSGPGGSAEASRSLSVSARARSSSEDKITVHFINRDGETLTTKGKVGDSLLDVVVENNLDIDGFGACEGTLACSTCHLIFEDHIYEKLDAITDEENDMLDLAYGLTDRSRLGCQICLTKSMDNMTVRVPETVADARQSIDVGKTS [R41S], the “scaled log2 fold change” value is -0.22 under setting [1] and 0.473 under setting [2].
The corresponding values for MAAAGGARLLRAASAVLGGPAGRWLHHAGSRAGSSGLLRNDGPGGSAEASRSLSVSARARSSSEDKITVHFINRDGETLTTKGKVGDSLLDVVVENNLDIDGFGACEGTLACSTCHLIFEDHIYEKLDAITDEENDMLDLAYGLTDRSRLGCQICLTKSMDNMTVRVPETVADARQSIDVGKTS [R41D] are 0.137 and -0.209.
Turning to MAAAGGARLLRAASAVLGGPAGRWLHHAGSRAGSSGLLRNCGPGGSAEASRSLSVSARARSSSEDKITVHFINRDGETLTTKGKVGDSLLDVVVENNLDIDGFGACEGTLACSTCHLIFEDHIYEKLDAITDEENDMLDLAYGLTDRSRLGCQICLTKSMDNMTVRVPETVADARQSIDVGKTS [R41C], the “scaled log2 fold change” value was -0.0654 under setting [1] and -0.255 under setting [2].
The corresponding values for MAAAGGARLLRAASAVLGGPAGRWLHHAGSRAGSSGLLRNAGPGGSAEASRSLSVSARARSSSEDKITVHFINRDGETLTTKGKVGDSLLDVVVENNLDIDGFGACEGTLACSTCHLIFEDHIYEKLDAITDEENDMLDLAYGLTDRSRLGCQICLTKSMDNMTVRVPETVADARQSIDVGKTS [R41A] are 0.281 and 0.851.
The corresponding values for MAAAGGARLLRAASAVLGGPAGRWLHHAGSRAGSSGLLRNIGPGGSAEASRSLSVSARARSSSEDKITVHFINRDGETLTTKGKVGDSLLDVVVENNLDIDGFGACEGTLACSTCHLIFEDHIYEKLDAITDEENDMLDLAYGLTDRSRLGCQICLTKSMDNMTVRVPETVADARQSIDVGKTS [R41I] are -0.144 and 0.109.
For the variant MAAAGGARLLRAASAVLGGPAGRWLHHAGSRAGSSGLLRNPGPGGSAEASRSLSVSARARSSSEDKITVHFINRDGETLTTKGKVGDSLLDVVVENNLDIDGFGACEGTLACSTCHLIFEDHIYEKLDAITDEENDMLDLAYGLTDRSRLGCQICLTKSMDNMTVRVPETVADARQSIDVGKTS [R41P], the “scaled log2 fold change” value is -0.0791 under setting [1] and -0.655 under setting [2].
The corresponding values for MAAAGGARLLRAASAVLGGPAGRWLHHAGSRAGSSGLLRNLGPGGSAEASRSLSVSARARSSSEDKITVHFINRDGETLTTKGKVGDSLLDVVVENNLDIDGFGACEGTLACSTCHLIFEDHIYEKLDAITDEENDMLDLAYGLTDRSRLGCQICLTKSMDNMTVRVPETVADARQSIDVGKTS [R41L] are 0.167 and 0.278.
The corresponding values for MAAAGGARLLRAASAVLGGPAGRWLHHAGSRAGSSGLLRNEGPGGSAEASRSLSVSARARSSSEDKITVHFINRDGETLTTKGKVGDSLLDVVVENNLDIDGFGACEGTLACSTCHLIFEDHIYEKLDAITDEENDMLDLAYGLTDRSRLGCQICLTKSMDNMTVRVPETVADARQSIDVGKTS [R41E] are 0.0687 and -0.798.
The corresponding values for MAAAGGARLLRAASAVLGGPAGRWLHHAGSRAGSSGLLRNNGPGGSAEASRSLSVSARARSSSEDKITVHFINRDGETLTTKGKVGDSLLDVVVENNLDIDGFGACEGTLACSTCHLIFEDHIYEKLDAITDEENDMLDLAYGLTDRSRLGCQICLTKSMDNMTVRVPETVADARQSIDVGKTS [R41N] are 0.199 and -0.371.
MAAAGGARLLRAASAVLGGPAGRWLHHAGSRAGSSGLLRNMGPGGSAEASRSLSVSARARSSSEDKITVHFINRDGETLTTKGKVGDSLLDVVVENNLDIDGFGACEGTLACSTCHLIFEDHIYEKLDAITDEENDMLDLAYGLTDRSRLGCQICLTKSMDNMTVRVPETVADARQSIDVGKTS [R41M]: the “scaled log2 fold change” value reads like this: under setting [1], 0.173; under setting [2], 0.0788.
